From the nanobody polyreactivity screen of Harvey et al. (2022)

Test: yeast display, Sf9 membrane polyspecificity reagent, FACS + sequencing; frameworks hold sequencing errors
Method in brief: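 Nanobodies came from a synthetic yeast display library in Saccharomyces cerevisiae BJ5465, induced with galactose for 36–48 hours and stained for 1 hour at 4 °C with 10% biotinylated, detergent-solubilized Sf9 membrane reagent. Cells were enriched on streptavidin microbeads and then FACS-sorted, with low and high (top ~1%) gates set on anti-HA fluorescence for expression and streptavidin fluorescence for reagent binding. Each polyreactivity label reflects the gate a clone came from. Genes were amplified by colony PCR, sequenced by MiSeq 2 × 250 and filtered by CDR length.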

Row | Sequence | polyreactivity (PSR sort gate)
1 | QVQLVESGGGLVQAGGSLRLSCAASGRIFWVYAMGWYRQAPGKEREFVADITWTGGSTYYADSVKGRFTISRDNAKNTVYLQMNSLKPEDTAVYYCAADSWSNYDYWGQGTQVTVSS | high polyreactivity
2 | QVQLVESGGGLVQAGGSLRLSCAASGSIFAWYAMGWYRQAPGKERELVADITQSGGSTYYADSVKGRFTISRDNAKNTVYLQMNSLKPEDTAVYYCVDYWYNYLQSGWEDDYWGQGTQVTVSS | low polyreactivity
3 | QVQLVESGGGLVQAGGSLRLSCAASGRIFQYNAMGWYRQAPGKERALVAAIRRGGGSTYYADSVKGRFTISRDNAKNTVYLQMNSLKPEDTAVYYCAARRKRVSFYPEYDYWGQGTQVTVSS | low polyreactivity
4 | QVQLVESGGGLVQAGGSLRLSCAASGIIFSYYAMGWYRQAPGKERELVADISSDGSTNYADSVKGRFTISRDNAKNTVYLQMNSLKPEDTAVYYCAAGYVHYGWFELDYWGQGTQVTVSS | low polyreactivity
5 | QVQLVESGGGLVQAGGSLRLSCAASGSTFYSYAMGWYRQAPGKERELVAAISWSGGSTYYADSVKGRFTISRDNAKNTVYLQMNSLKPEDTAVYYCAATRTRGYDGYGMYYWGQGTQVTVSS | high polyreactivity
6 | QVQLVESGGGLVQAGGSLRLSCAASGFTFYGYAMGWYRQAPGKERELVAAISSRGSRTYYADSVKGRFTISRDNAKNTGYLQMNSLKPEDTAFYYCAVDKAITQGLYDYWGQGTQVTVSS | high polyreactivity
7 | QVQLVESGGGLVQAGGSLRLSCAASGSIFAGHAMGWSIQAPGKERELVAAISRRGGNTYYADSVKGRFTISRDNAKNTVYLQMNSLKPEDTAVYYCAVRSRLYSSSIAYDYWGQGTQVTVSS | high polyreactivity
8 | QVQLVESGGGLVQAGGSLRLSCAASGSIFYPNVMGWYRQAPGKERELVATISRGGTTNYADSVKGRFTISRDNAKNTVYLQMNRLKPEDTAVYYCAAPIGDVYVGKGYDSWGQGTQVTVSS | low polyreactivity
9 | QVQLVESGGGLVQAGGSLRLSCAASGGNFWIYTMGWYTQAPGKERELVASITRGGSTYADSVKGRFTISRDKAKNTVYLQMNSLKPEDTAVYYCNAEFRYPWFRWEYDHWGQGTQVTVSS | low polyreactivity
10 | QVQHVESGGGLVQAGGSLRLSCAASGLTFSYNAMGWYRQAPAKERELVAAIRSGGSTNYADSVKGRFTISRDNAKNTVYLEMYSLKPVDSAVYFCADKSVTGVFRYYYWGQGSQVTVSS | low polyreactivity
11 | QVQLVESGGGLVQEGGSLRLSCAASGSIFNTYAMGRYRQAPGKEREMVAGITKTGSRTYYADSVKGRFTISRDNAKNTVYLQIHILKPEDTAVYYCNARIWPRSYRYDYWGQGTQVTVSS | high polyreactivity
12 | QVHLVESGGGLVQPGGSLRLSCAASGSTFQTYAMVWYRQAPGKERELVAAITSGGSTNYADSVKGRFTISRDNAKNTVYLQMNSVYPEVTAVYFCAVRQIYQTSDHRLQYDYWGQGTQVTVSS | low polyreactivity
13 | QFQLVESGGGLVQAGGSLRLSCAASGLIFVGNPMGWYRQAPGKERELVAAISSRGGRTYYADSVKGRFTISRDNAKNTVYLQMNSLKPEDTAVYYCIAANSQWGFEYWGQGTQVTVSS | high polyreactivity
14 | QVQLVESGGGLVQAGGSLRLSCAASGLIFVWYAMGWYRQAPGKEREVVAAITSRGGSTYYADSVKGRFTISRDNAKNTVYLQMNSLKPEDTAVYYCAKYVRYDLGDYWGQGTQVTVSS | low polyreactivity
15 | QVQLVESCGGLVPAGGSLRLSCAASGSTFRYAMGWYRQTPGKERELVDAITRSGGSTYYAYSVKVRFTISRDKAKNTVYLQMNSLKPEDTAVYYCNARRGKGKSYGDYGYGYWGQGTQVTVSS | high polyreactivity
16 | QVQLVESGGGLGQAGGSLRLICAASGSIFYSNAMGWYRQATGKERELVAAISWNGGRTYYADSVKGRFTISRDTAKNTVYLQMNSLKPEDTAVYFWAAKYRNRYDFWGQGTQVTVSS | low polyreactivity

Row | Sequence | polyreactivity (PSR sort gate)
17 | QVQLVESGGGLVQAGGSLRLSSAASGSTFNLYAMGWYRQAPGKERELVAAISRRGGSTYYADSVKGRFTISRDNAKNTVYLQMNSLKPEDTAVYYCAAVVVTGQGDKYDYWGQGTQVTVSS | high polyreactivity
18 | QVQLVESGGGLVQAGGSLRLSCAASGRILKWYAMGWYRQAPGKERELVAAISARGGSTFYADSVKGRFTISRDNAKNTVYLQMNSLKPEDTAVYYCNTYYRGGPYDVAYDYWGQGTEVTVSS | high polyreactivity
19 | QVQLVESGGGLVQAGGSLRLSCAASGYIIGGNAMGWYRQAPGKERELVAVISSRGGRTYYADSVKGRFTISRDNAKNTVYLQMNSLKPEDTAVSYCNRDFSYQYKRDYWGQGTQVTVSS | high polyreactivity
20 | QVQLVESGGGKVQAGGSLRLSCASSGFTYDSNAMGSYRQAPGKERELVAAISTGGSTYYADSVKGPFTISRDNANITVYLQMYSLKPEDTAVYYCARDPPYPDTWYGYWGQGTQVTVSS | low polyreactivity
21 | QVQLVESGGGLVQAGGSLRLSCAASGSTFNSNAMGWYRQAPGKERELVAAISYSGGRTYYADSVKGRFTISRDNAKNTVYLQMNSLKPEDTAVYYCAKSPNHYIHFDYWGQGTQVTVSS | low polyreactivity
22 | QVQLVESGGGLVQAGGSLRLSCAASGSTFPVNAMGWYRQAPGKERELVAAISSTGTSTYYADSVKGRFTISRDNAKNTVYLQMNSLKPEDTAGYYCAAETWVWGYVLYDYWGQGTQVTVSS | high polyreactivity
23 | QVQLVESGAGIVQAGGSLRLSCAASGIIFNLYAMGWYRQAPGKERELVASISIGGSTNYADSVKGRFTISRDNAKNTVYLQMNSLKPEDTAVYYCAAALYEATYDANGLDMDYWGQGTQVTVSS | high polyreactivity
24 | QVQLLESGGGLVQAGGSLRLSCAASGSTFASYAMGWYRQAPGKETELVAAITRTGSTYYADSVKGRFTISRDNAKNTVYLQMNSLKPEDTAVYYCAKLWIGGYKYYYWGQGTQVTVSS | high polyreactivity
25 | QVQLVETGGGLVQAGGTLRLSCAASGRTFSRNAMGCDRPAPGKERELVAAITSGGGTYYADSVKGRFTISRDNAKNTVYLQMNSLKPEDTAVYYCNKKTSAGRVDYWGQGTQVTVSS | high polyreactivity
26 | QVQLVESGGGLVQAGGSLRLSCAASGITFPGYAMGWYRQAPGKERELVAAISDSGSSTYYADSVKGRFTISRDNAKNTVYLQMNSLKPEDTAVYYCAAVSGFYDQYDYWGQGTQVTVSS | low polyreactivity
27 | QEQLVESGGGLDQAGGSLRLSCAASGSTFYAYAMGWSRQATGKETELVAAISSDGTNYADSVKGRFTISRDNAKNTVYLQMNCLKPEDTAVYYCAADLLLTSSQDNDYWGQGTQVTVSS | low polyreactivity
28 | QVQLVESGGGLVQAGGSLRLSCAASGSTFRKYAMGWYRQAPGKERELVAAISKSGGSTYYADSVKGRFTISRDNAKNTVYLQMNSLKPEDTAVYYCNARKRTKLSYPKFDYWGQGTQVTVSS | high polyreactivity
29 | QVQLVESGGGLVQAGGSLRLSCAASGRIFYFNAMGWYRQAPGKERELDAAISWSGGSTYYADSVKGRFTISRDNAKNTVYLQMNSLKPEDTAVYSCATDSYRQGDYYRGRVDYWGQGTQVTVSS | low polyreactivity
30 | QVQLVESGGGLVQAGGSLRLSCAASGRTFTPYAKGWYRQAPGKERELVATISSGTSTNYADSVKGRFTISLDNAKYTVYLQMNSLKPEDTAVYYCAADGYTYKFDYWGQGSQVTVSS | low polyreactivity
31 | QVQLVESGGGLVQAGGSLRLSSAASGSIFQDNAMGWNRQAPGKERELVAAISVSGGSTYYADSVKGRFTISRDNAKNTVYLQMNSLKPEDTAVYYCAARARGYAWTYDYWGQGTQVTVSS | high polyreactivity
32 | QVQLVESGGGLVQAGGSLRLSCAASGRTFIKNAMGWYRQAPGKERELVATISKRGGRTYYADSVKGRFTISRDNAKNTVYLQMNSLKPEDTAVYYCAARYRKSGLDKYWGQGTQVTVSS | high polyreactivity
